Measurements taken from publication PMC11162469, “Discovery of RXFP2 genetic association in resistant hypertensive men and RXFP2 antagonists for the treatment of resistant hypertension” (Scientific Reports, 2024).
Substitutions are numbered along the chain they refer to. Blank lines part the entries; values can stand above or below the molecule they belong to.

Experiments:
[1] = Pharmacokinetic study of RXFP2 mAbs in rat; assay type: in vivo, Wistar Han rats; conditions: for half-life, extrapolated values: Wistar Han rats, 1 mg/kg sc., over 28 days; for estimated dose to achieve tenfold higher IC50 HEK-rRXFP2 cAMP activity for approximately 28 days in rat: from trough concentration, dose-linearity assumed; for AUClast / Cmax / Tmax: male Wistar Han rats, 1 mg/kg s.c., n = 3, mean ± SD
Experimental: For the pharmacokinetic study of RXFP2 mAbs in rat, 1G1, 2D4, 4B1, 4G6, 1F2, and 3F3 were prepared in phosphate buffered saline (0.100 mg/mL) with low endotoxin (≤ 0.76 EU/mL). Adult male Wistar Han rats (n = 3/mAb) were administered 1 mg/kg subcutaneously (10 mL/kg). Blood samples (100 µL) were collected in EDTA containing tubes at 0.25, 3, 6 24, 48, 96, 168 (day 7), 336 (day 14), 504 (day 21), and 672 (day 28) hours post dose, immediately centrifuged (6100 rpm), and 50 µL plasma stored at − 80 °C until assay. Rats maintained health throughout the study and were anesthetized (isoflurane to effect) and euthanized on day 28.
Frozen rat plasma samples were thawed and analyzed using a qualified analytical method based on sample dilution, followed by Electrochemiluminescence immunoassay analysis. The lower limit of quantification (LLQ) was 0.1 µg/mL using a 10 µL aliquot of 51-fold diluted rat plasma with a higher limit of quantification (HLQ) of 10 µg/mL. RXFP2 mAbs were captured with LDLa protein and detected with sulfo-tag labeled mouse anti-rat IgG2b. The computer systems that were used to acquire and quantify data included Gyrolab Workstation Version 8.1.5 and Watson LIMS version 7.6.1. Rat pharmacokinetic parameters were calculated by non-compartmental analysis (NCA) analysis using WinNonlin Phoenix 64 (version 8.3). Values are reported in mean ± standard deviation.

[2] = target: T1, rat RXFP2 (Rattus norvegicus, UniProt F7EMH8); test: INSL3-stimulated CYP11B1 mRNA expression in H295R stably expressing rat RXFP2; assay type: cell-based; parameters: expressed in transfected cells; conditions: INSL3 EC80 (3.5 nM), 48 h, qPCR; N = 2
T1 sequence (F7EMH8 20-737): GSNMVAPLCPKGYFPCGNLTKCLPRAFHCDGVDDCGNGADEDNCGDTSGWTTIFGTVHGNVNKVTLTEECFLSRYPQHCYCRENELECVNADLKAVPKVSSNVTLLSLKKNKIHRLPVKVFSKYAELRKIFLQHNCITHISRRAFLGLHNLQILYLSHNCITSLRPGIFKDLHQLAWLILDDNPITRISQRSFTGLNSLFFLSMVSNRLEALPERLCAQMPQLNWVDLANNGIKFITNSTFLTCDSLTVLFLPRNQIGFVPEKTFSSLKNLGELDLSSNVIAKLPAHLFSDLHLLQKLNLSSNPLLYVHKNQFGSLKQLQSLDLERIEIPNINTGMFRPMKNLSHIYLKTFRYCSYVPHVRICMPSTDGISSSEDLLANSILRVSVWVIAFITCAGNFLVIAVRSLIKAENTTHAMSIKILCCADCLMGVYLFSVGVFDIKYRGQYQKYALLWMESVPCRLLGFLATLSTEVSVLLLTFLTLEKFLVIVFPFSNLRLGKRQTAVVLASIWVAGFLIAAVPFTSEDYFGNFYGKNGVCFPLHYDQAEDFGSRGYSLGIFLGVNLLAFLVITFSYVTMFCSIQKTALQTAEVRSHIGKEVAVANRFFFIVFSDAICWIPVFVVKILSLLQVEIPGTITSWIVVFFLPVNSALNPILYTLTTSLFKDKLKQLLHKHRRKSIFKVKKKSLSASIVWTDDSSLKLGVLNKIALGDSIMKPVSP
Experimental: (§1) RXFP2 antagonists were added to H295R-rRXFP2 before addition of INSL3 EC80 (3.5 nM) for 48 h, whereupon the cells and supernatants were collected. CYP11B1 and CYP11B2 mRNA were determined by qPCR and the RXFP2 blocker potencies were calculated (Fig. 5a). Fifteen antibodies have IC50s < 50 nM, and three of the top antibodies (1F2, 4G6, and 2D4) were selected for evaluation in steroid hormone secretion assays by ELISA.
(§2) Data entered as XY table, with x = [Inhibitor] (nM) and y = CYP11B2 or CYP11B1 fold change.

[3] = target: T1, rat RXFP2; test: INSL3-stimulated CYP11B2 mRNA expression in H295R stably expressing rat RXFP2; assay type: cell-based; parameters: expressed in transfected cells; conditions: INSL3 EC80 (3.5 nM), 48 h, qPCR; N = 2
Experimental: as §1, §2

[4] = target: T1, rat RXFP2; test: Cortisol secretion (ELISA) in H295R stably expressing rat RXFP2; assay type: cell-based; parameters: expressed in transfected cells; conditions: H295R-rRXFP2, 3.5 nM INSL3, 48 h, read-out: IC50 on INSL3-induced cortisol release
Experimental: as §1
(§3) The day after seeding, H295R cells were treated and incubated for 48 h before supernatants and cell lysates were collected. Treatments included INSL3, IgG, 1F2, and 4G6 at 0.035 pM–3.5 µM, 2D4 at 0.01 nM–1 uM, or phosphate buffered saline control. In RXFP2 antagonist assays, 3.5 nM INSL3 was used as the stimulus. Cortisol present in the adrenal cell supernatant at 48 h post treatment was detected by ELISA (R&D KGE008B). Sample dilution was optimized at 1/90 using a standard curve. Aldosterone was below the limit of detection by ELISA (R&D KGE016) and required liquid–liquid extraction (LLE) twice using methyl tetra butyl ether. Post extraction samples were dried (SPE Nitrogen dryer) and reconstituted for ELISA analysis. All samples were run in duplicates.

[5] = target: T1, rat RXFP2; test: INSL3-stimulated cAMP assay in HEK293 stably expressing rat RXFP2; conditions: INSL3 EC80-stimulated cAMP, stable expression, N = 2; for IC50: read-out: HEK293-rat RXFP2 cAMP IC50;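 for all read-outs here: cAMP measured with an HitHunter kit in 384-well plates, 11-point dose–response curves up to 1 µM antibody, four-parameter variable-slope fit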
[6] = target: human RXFP2 (Homo sapiens, UniProt Q8WXD0); test: INSL3-stimulated cAMP assay in HEK293 stably expressing human RXFP2; conditions: INSL3 EC80-stimulated cAMP, stable expression, N = 2; for IC50: read-out: HEK293-human RXFP2 cAMP IC50
Chain of human RXFP2 (Q8WXD0 whole entry): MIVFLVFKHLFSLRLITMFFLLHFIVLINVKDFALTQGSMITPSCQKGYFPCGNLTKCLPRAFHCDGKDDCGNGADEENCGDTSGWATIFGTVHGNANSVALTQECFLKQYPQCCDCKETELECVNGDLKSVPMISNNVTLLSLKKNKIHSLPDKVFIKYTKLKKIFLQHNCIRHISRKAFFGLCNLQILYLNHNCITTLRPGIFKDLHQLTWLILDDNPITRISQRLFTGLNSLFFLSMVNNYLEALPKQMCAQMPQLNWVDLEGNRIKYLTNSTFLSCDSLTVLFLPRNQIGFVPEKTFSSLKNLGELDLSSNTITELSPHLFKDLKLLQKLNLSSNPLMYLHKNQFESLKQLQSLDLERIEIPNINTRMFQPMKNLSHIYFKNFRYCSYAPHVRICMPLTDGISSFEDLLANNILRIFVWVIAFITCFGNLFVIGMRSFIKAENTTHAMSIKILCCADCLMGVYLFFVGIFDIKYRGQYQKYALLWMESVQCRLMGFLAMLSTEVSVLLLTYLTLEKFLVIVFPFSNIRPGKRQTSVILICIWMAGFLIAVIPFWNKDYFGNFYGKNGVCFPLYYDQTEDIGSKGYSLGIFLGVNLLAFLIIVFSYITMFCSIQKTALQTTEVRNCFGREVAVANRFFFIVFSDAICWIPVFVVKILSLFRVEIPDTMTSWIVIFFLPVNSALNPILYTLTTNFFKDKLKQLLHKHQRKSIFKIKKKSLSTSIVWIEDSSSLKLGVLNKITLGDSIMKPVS

[7] = target: T1, rat RXFP2; test: Aldosterone secretion (ELISA) in H295R stably expressing rat RXFP2; assay type: cell-based; parameters: expressed in transfected cells; conditions: H295R-rRXFP2, 3.5 nM INSL3, 48 h, read-out: IC50 on INSL3-induced aldosterone release
Experimental: as §1, §3

[8] = target: T2, human LDLa-linker (Homo sapiens, UniProt Q8WXD0); test: Biacore S200 binding to human LDLa-linker protein
T2 construct: human LDLa linker [huRXFP2-LDLa-linker(38-105)-ratFc-8XHIS]; enterokinase cleavage site (C); rat Fc (C, cleaved yes); 8xHis (C, cleaved yes); made in house; host or cells: Expi293
T2 sequence (Q8WXD0 38-105): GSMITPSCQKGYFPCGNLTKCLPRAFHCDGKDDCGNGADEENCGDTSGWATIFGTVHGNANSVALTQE
Experimental: Goat anti Rat Fc gamma fragment specific (Jackson Immunoresearch, 112-005-071) was immobilized at 30 µg/mL to a Series S CM5 chip (Cytiva Life Sciences). In three separate runs, twenty different purified recombinant rat anti RXFP2 antibodies were then captured to the CM5 chip at a concentration of 5 µg/mL. The antibody panel was captured; rat LDLa-linker or human LDLa-linker protein was flowed as analyte at the following concentrations: 20 nM, 10 nM, 5 nM, 2.5 nM, […], and 0 nM. Antibody kinetics were evaluated using a 1:1 fit model (Biacore S200).

[9] = target: T3, human LDLa peptide (UnitProt Q8WXD0 43-80) (Homo sapiens, UniProt Q8WXD0); test: ELISA binding to linker-less human LDLa peptide
T3 construct: human LDLa peptide (Q8WXD0 43-80)
T3 sequence (Q8WXD0 43-80 limits assumed): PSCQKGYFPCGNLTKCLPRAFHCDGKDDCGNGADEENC
Experimental: The human/rat RXFP2 cross reactive antibodies belong to two epitope bins and were further evaluated for binding to the linker-less human LDLa peptide (UnitProt Q8WXD0 43-80) by ELISA. […] The different domain requirements for binding are consistent with results from the binning experiment showing 4F6 and 4G6 are in a separate bin from 4B1.
Rat LDLa-linker_ratFc, human LDLa-linker_ratFc, or ratFc, or human LDLa peptide (Q8WXD0 43-80) was diluted to 1 µg/mL in 1X PBS and immobilized in separate 96-well ELISA plates (Nunc Maxisorp), 50 µL/well. The plates were then incubated overnight at 4 °C. The following day the plates were washed three times with ELISA wash buffer (PBS + 0.05% Tween-20) and then blocked with ELISA blocking buffer (PBS + 0.05% Tween-20 + 1% BSA), 200 µL/well, and incubated 1 h at room temperature on a shaker. Plates were again washed three times followed by the addition of the primary antibodies. Hybridoma supernatant was added neat, 50 µL/well; mouse serum was added 1:100 and then serially diluted 1:2 for 8 points, 50 µL/well. Purified antibodies were added 5 µg/mL in the first well and serially diluted down the plate 1:2 for 8 points, 50 µL/well. Primary antibody was incubated for 1 h at room temperature on a shaker. […] Stopping solution (2N Sulfuric acid) was added to the plates 50 µL/well, and then read on a plate reader (SpectraMax Molecular Devices) at 450 nm.

- IC50 [2]: 0.32 nM
- IC50 [3]: 0.1 nM
- IC50 [4]: 0.21 nM
- HEK293-rat RXFP2 cAMP % Max Response [5]: 76.1%
- IC50 [5]: 19.1 nM
- IC50 [6]: ~405 nM
B1: 1F2: RXFP2 monoclonal antibody from hybridoma, recombinantly expressed in a rat IgG2b backbone (antibody, V domains shown)
VH: QVQLKQSGPGLVQPSQSLSITCTVSGFSLTAYGVNWVRQSPGKGLEWLGVIWSGGNTDYNAPFISRLSITKDNSKSQVFFKMNSLEADDTAIYYCARAKGYYAMDYWGQGTSVTVSS
VL: DIQMTQSPASLSVSVGESVTITCRATENIYSNLVWYQQKQGQSPQLLVYAVTSLADGVPSRFSGSGSGTQYSLKINSLQSEDFGTYYCQHFWGTPYTFGGGTKLEIK
- half-life, extrapolated values [1]: ≥ 264 h
- estimated dose to achieve tenfold higher IC50 HEK-rRXFP2 cAMP activity for approximately 28 days in rat [1]: approximately 10 mg/kg
- AUClast [1]: 3530 ± 746 µg·h/mL
- Cmax [1]: 7860 ± 1750 ng/mL
- Tmax [1]: 120 ± 42 h

- IC50 [2]: 0.14 nM
- IC50 [3]: 0.11 nM
- IC50 [4]: 0.17 nM
- IC50 [7]: 0.05 nM
- HEK293-rat RXFP2 cAMP % Max Response [5]: 86.8%
- IC50 [5]: 21 nM
- IC50 [6]: > 1000 nM
B2: 2D4: RXFP2 monoclonal antibody from hybridoma, recombinantly expressed in a rat IgG2b backbone (antibody, V domains shown)
VH: QVQLKESGPGLVAPSQSLSITCTVSGFSLTTYGISWVRQPPGKGLEWLGVIWTGGGTNYNSALKSRLSISKDNSKSQVFLKMNSLQTDDTARYYCARTEGYYVMDYWGQGTSVTVSS
VL: B1 VL with S18T, T26S, Q42K, V51A, S53N, S77N, T94P, Y96W
- half-life, extrapolated values [1]: ≥ 264 h
- estimated dose to achieve tenfold higher IC50 HEK-rRXFP2 cAMP activity for approximately 28 days in rat [1]: approximately 9 mg/kg
- AUClast [1]: 3210 ± 463 µg·h/mL
- Cmax [1]: 7360 ± 1540 ng/mL
- Tmax [1]: 168 ± 0 h

- cross reactivity to the human LDLa-linker [8]: cross reactivity
- binding to linker-less human LDLa peptide [9]: bind
- HEK293-rat RXFP2 cAMP % Max Response [5]: 80.4%
- IC50 [5]: 48.5 nM
- HEK293-human RXFP2 cAMP % Max Response [6]: ~ 82.7%
- IC50 [6]: ~354 nM
B3: 4F6: Human/rat cross-reactive RXFP2 monoclonal antibody, rat IgG2b backbone; binds the LDLa domain (antibody, V domains shown)
VH: EVQLQQSGPELVKPGASVKMSCKASGYTFTNYVLHWVKQKPGQGLEWIGYINPYNDGSKYNEKFKGRATLTSDKSSSTAYMELSSLTSEDSAVYYCARGGWLLDYFDYWGQGTTLTVSS
VL: DVLMTQSPLSLPVSLGEQASISCRSSQSIVHSDGDTYLEWYLQKPGQSPNLLIYKVSNRFSGVPDRFSGSGSGTDFTLKISRVEAEDLGVYYCFQGSHVPPTFGGGTKLEIK
